Measured values taken from IntAct's records for PubMed 29997244.

B1: DnaJ homolog subfamily C member 5 (Homo sapiens), Q9H3Z4 (parent)
chain: MADQRQRSLSTSGESLYHVLGLDKNATSDDIKKSYRKLALKYHPDKNPDNPEAADKFKEINNAHAILTDATKRNIYDKYGSLGLYVAEQFGEENVNTYFVLSSWWAKALFVFCGLLTCCYCCCCLCCCFNCCCGKCKPKAPEGEETEFYVSPEDLEAQLQSDEREATDTPIVIQPASATETTQLTADSHPSYHTDGFN
partner: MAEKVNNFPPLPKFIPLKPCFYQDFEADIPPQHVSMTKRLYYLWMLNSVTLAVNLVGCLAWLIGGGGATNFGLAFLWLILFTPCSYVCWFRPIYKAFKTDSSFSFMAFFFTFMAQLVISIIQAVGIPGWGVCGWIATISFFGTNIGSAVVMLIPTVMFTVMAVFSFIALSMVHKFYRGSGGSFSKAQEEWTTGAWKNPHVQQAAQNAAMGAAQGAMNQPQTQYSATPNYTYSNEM
B2: DnaJ homolog subfamily C member 5 (Homo sapiens), Q9H3Z4 (parent)
chain: B1 chain
partner: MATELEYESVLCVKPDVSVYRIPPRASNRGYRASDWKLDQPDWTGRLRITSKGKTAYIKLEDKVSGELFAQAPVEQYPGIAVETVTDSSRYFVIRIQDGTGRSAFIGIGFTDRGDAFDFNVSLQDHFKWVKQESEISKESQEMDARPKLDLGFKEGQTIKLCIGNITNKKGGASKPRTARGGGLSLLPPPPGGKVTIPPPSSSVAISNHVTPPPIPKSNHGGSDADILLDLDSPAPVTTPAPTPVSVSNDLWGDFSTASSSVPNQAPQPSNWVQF
B3: DnaJ homolog subfamily C member 5 (Homo sapiens), Q9H3Z4 (parent)
chain: B1 chain
partner: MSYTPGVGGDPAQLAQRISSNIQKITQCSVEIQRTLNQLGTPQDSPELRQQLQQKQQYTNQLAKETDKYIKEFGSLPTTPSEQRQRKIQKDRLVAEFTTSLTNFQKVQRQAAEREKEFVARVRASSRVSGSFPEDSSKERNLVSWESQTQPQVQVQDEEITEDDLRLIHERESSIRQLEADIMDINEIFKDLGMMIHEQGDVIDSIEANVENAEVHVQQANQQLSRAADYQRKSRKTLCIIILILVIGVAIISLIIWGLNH
B4: DnaJ homolog subfamily C member 5 (Homo sapiens), Q9H3Z4 (parent)
chain: B1 chain
partner: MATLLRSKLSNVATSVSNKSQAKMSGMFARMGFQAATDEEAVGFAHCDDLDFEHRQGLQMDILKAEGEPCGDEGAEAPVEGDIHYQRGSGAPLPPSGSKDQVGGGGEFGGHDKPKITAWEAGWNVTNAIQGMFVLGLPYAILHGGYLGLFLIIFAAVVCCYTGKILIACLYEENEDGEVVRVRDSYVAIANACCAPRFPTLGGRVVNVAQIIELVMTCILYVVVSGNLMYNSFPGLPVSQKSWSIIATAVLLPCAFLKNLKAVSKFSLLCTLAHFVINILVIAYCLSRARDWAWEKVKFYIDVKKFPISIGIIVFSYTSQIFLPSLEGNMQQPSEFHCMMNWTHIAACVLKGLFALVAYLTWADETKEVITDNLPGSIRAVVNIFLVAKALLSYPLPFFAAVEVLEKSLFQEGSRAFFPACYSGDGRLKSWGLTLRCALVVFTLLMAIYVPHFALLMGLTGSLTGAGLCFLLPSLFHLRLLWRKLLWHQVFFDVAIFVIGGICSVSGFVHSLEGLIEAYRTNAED
B5: DnaJ homolog subfamily C member 5 (Homo sapiens), Q9H3Z4 (parent)
chain: B1 chain
partner: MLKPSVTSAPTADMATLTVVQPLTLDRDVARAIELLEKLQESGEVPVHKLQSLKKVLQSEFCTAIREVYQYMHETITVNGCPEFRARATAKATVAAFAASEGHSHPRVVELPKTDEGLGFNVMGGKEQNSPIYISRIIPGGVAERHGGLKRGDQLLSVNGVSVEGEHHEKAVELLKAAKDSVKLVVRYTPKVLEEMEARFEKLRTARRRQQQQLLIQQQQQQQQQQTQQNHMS
B6: DnaJ homolog subfamily C member 5 (Homo sapiens), Q9H3Z4 (parent)
chain: B1 chain
partner: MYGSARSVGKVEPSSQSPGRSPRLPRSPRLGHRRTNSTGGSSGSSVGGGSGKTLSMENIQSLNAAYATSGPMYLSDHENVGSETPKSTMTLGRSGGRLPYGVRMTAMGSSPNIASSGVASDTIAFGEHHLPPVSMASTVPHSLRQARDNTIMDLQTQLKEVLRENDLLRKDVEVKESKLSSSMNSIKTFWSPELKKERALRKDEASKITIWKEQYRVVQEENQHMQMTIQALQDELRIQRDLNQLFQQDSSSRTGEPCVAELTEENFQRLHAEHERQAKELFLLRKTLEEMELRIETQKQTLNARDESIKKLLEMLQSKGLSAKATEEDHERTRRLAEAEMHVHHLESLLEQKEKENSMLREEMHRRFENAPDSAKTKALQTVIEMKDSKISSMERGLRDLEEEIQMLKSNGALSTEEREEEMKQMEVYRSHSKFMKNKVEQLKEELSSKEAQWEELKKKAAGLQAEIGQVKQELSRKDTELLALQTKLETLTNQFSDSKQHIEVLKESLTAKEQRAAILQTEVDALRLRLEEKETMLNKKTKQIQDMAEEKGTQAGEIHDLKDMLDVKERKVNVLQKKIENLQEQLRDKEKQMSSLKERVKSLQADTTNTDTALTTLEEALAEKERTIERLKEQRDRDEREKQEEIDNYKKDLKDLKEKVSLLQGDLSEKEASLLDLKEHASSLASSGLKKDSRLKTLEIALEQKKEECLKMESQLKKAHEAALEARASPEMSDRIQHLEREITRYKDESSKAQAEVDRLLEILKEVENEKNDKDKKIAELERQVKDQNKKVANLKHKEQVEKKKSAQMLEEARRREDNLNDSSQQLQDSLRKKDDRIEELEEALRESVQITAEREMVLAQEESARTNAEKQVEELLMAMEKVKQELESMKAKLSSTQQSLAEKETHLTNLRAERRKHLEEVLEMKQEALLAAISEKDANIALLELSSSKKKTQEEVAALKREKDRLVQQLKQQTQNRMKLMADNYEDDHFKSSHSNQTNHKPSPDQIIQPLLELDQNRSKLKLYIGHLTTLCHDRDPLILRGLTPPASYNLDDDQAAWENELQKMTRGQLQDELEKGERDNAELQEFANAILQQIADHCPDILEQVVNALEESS
B7: DnaJ homolog subfamily C member 5 (Homo sapiens), Q9H3Z4 (parent)
chain: B1 chain
partner: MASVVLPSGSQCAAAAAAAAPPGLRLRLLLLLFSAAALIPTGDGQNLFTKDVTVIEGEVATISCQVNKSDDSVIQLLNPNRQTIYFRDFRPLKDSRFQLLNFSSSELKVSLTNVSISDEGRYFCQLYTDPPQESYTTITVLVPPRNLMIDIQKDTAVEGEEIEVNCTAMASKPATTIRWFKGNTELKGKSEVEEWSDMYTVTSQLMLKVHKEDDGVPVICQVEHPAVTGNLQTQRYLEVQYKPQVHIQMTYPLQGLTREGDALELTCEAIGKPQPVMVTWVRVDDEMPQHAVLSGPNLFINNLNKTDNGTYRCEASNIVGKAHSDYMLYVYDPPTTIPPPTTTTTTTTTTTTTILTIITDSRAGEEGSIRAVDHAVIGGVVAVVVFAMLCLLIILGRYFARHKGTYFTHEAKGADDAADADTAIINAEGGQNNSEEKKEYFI
B8: DnaJ homolog subfamily C member 5 (Homo sapiens), Q9H3Z4 (parent)
chain: B1 chain
partner: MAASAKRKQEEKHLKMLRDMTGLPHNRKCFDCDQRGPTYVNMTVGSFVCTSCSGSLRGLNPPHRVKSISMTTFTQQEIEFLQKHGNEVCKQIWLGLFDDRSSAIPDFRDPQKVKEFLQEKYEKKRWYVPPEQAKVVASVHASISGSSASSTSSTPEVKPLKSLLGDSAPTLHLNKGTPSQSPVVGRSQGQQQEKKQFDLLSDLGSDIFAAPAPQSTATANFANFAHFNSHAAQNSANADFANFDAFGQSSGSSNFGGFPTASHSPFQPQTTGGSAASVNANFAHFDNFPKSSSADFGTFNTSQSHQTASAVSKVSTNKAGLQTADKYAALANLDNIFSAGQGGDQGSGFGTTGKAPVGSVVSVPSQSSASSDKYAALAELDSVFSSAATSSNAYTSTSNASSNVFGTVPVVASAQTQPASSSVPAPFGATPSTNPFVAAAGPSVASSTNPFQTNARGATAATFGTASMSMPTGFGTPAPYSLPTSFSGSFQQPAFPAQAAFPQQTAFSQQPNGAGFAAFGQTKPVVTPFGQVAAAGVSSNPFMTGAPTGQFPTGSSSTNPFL
B9: DnaJ homolog subfamily C member 5 (Homo sapiens), Q9H3Z4 (parent)
chain: B1 chain
partner: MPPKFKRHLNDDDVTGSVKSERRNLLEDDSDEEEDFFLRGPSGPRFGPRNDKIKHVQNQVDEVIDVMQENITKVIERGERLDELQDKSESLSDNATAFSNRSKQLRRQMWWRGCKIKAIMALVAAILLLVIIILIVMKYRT
B10: DnaJ homolog subfamily C member 5 (Homo sapiens), Q9H3Z4 (parent)
chain: B1 chain
partner: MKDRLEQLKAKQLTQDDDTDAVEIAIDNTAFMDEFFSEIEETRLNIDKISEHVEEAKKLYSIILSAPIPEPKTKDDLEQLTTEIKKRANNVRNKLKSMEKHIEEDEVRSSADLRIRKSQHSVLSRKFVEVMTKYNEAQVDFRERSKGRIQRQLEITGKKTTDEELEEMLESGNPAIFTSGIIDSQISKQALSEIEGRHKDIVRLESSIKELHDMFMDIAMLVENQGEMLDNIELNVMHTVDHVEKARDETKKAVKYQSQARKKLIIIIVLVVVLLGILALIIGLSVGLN

Variants of: B1
Conditions: with scam5_human SCAMP5, Q8TAC9

| Variant | effect of a mutation on the interaction |
| --- | --- |
| L115R | with no effect |

Variants of: B2
Conditions: with necp1_human NECAP1, Q8NC96

| Variant | effect of a mutation on the interaction |
| --- | --- |
| L115R | with no effect |

Variants of: B3
Conditions: with stx7_human STX7, O15400

| Variant | effect of a mutation on the interaction |
| --- | --- |
| L115R | decreasing interaction strength |

Variants of: B4
Conditions: with viaat_human SLC32A1, Q9H598

| Variant | effect of a mutation on the interaction |
| --- | --- |
| L115R | with no effect |

Variants of: B5
Conditions: with lin7a_human LIN7A

| Variant | effect of a mutation on the interaction |
| --- | --- |
| L115R | with no effect |

Variants of: B6
Conditions: with rb6i2_human ERC1, Q8IUD2

| Variant | effect of a mutation on the interaction |
| --- | --- |
| L115R | with no effect |

Variants of: B7
Conditions: with cadm1_human CADM1, Q9BY67

| Variant | effect of a mutation on the interaction |
| --- | --- |
| L115R | decreasing interaction strength |

Variants of: B8
Conditions: with agfg1_human AGFG1, P52594

| Variant | effect of a mutation on the interaction |
| --- | --- |
| L115R | with no effect |

Variants of: B9
Conditions: with vamp4_human VAMP4, O75379

| Variant | effect of a mutation on the interaction |
| --- | --- |
| L115R | with no effect |

Variants of: B10
Conditions: with stx3_human STX3, Q13277

| Variant | effect of a mutation on the interaction |
| --- | --- |
| L115R | with no effect |
